This is an account of results in EP1137786B1.

Where only a bound is given, the exact number is not on record here.

Assay [1] addresses CCR5 (UniProt P51681). The assay can be described thus: flow cytometry on L1.2/R5 cells. For orientation: Flow cytometry measures light scatter and fluorescence of single cells or particles in a stream.
Assay [2] has as its target CCR5 (UniProt P51681). Description: cell-based or functional assay.
The target in a further assay is CXCR4 (UniProt P61073). Description: cell-based or functional assay.
Sequence of CXCR4 (P61073 whole entry): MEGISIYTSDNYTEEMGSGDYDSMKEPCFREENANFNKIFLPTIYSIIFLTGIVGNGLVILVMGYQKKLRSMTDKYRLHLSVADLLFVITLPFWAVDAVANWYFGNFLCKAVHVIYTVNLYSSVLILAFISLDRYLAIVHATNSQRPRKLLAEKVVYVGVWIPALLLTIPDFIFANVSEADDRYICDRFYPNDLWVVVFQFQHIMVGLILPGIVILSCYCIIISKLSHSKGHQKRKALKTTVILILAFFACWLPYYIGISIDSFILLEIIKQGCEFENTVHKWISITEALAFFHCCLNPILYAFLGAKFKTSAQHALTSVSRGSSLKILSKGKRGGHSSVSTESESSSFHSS

Sequence of CCR5 (P51681 whole entry): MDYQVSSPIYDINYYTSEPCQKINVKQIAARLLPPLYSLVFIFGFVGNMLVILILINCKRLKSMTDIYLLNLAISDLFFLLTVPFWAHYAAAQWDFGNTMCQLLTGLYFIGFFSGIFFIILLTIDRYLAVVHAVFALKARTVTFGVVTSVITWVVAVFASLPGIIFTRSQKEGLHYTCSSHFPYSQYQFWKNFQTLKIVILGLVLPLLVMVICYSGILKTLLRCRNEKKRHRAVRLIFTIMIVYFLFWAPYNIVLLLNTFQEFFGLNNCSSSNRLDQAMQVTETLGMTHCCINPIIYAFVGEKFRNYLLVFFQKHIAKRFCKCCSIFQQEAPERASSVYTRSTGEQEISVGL

For the substance “truncated single chain (TcSC) gp120-CD4 chimeric polypeptide (from UniProt P01730 26-208)”, in the assay with CCR5 [1], the fold higher concentration needed to approach saturation binding, against FLSC came out at 10 fold.

In the assay with CCR5 [2], “gp120-CD4-IgG1 chimeric polypeptide (from UniProt P01730 26-208) (Fc fusion)” showed an ID90, neutralization of HIV 89.6 on U373/CD4/CCR5 cells of 3.56 mg/L; an ID90, neutralization of HIV ADA on U373/CD4/CCR5 cells of 4.58 mg/L; an ID90, neutralization of HIV BaL on U373/CD4/CCR5 cells of 3.1 mg/L. In the assay with CXCR4, the ID90, neutralization of HIV 89.6 on U373/CD4/CXCR4 cells was over 10 mg/L; the ID90, neutralization of HIV 2005 on U373/CD4/CXCR4 cells is over 10 mg/L; the ID90, neutralization of HIV 2044 on U373/CD4/CXCR4 cells is over 10 mg/L.
